Assay: soluble on expression in E. coli; label from the status in PepcDB or PDB records

Soluble on expression in E. coli, soluble:
MDNCNAWDKLLSQNESTINSTETATITAIIYSPSSKTLHQFINICFPEGSNSILDTTLINYATIGWTNDLKENYSVDVYTLIRNTDDALDLLKPFLQEHSSKVRWLILLDWTLNDQKLWLNELSYAFNKIKQLNDDNEFSVWCLNSGEILNLQRHTTVWQSVHIDFILQTLRSFCYFNDSSLFYICEDHTEEKREEAQRLKYQELLKHFCEDRDMKDHIEMVKRSEILIPKGCDSIGLIKTVDERFEPTEVKEQHFLARYMDFIPTIDKIREDRKTTSGIDLDKLYPLEVFKVNIQEELGKMFAKYRENSRI
MDNIKIIVASDSIGETAELVARAGVSQFNPKQCKHEFLRYPYIESFENVDEVIQVAKDTNAIIVYTLIKPEIKKYMISKVNEHALKSVDIMGPLMELLSNSIEETPYYEPGMVHRLDDAYFKKIDAIEFAVKYDDGKDPKGLPKADIVLLGISRTSKTPLSQYLAHKSYKVMNIPIVPEVTPPDGLFNVDPSKCIALKISEEKLNRIRKERLKQLGLGDKARYATEARIQEELDYFEKLVDKIGCPVIDVSDKAIEETANDIIHFIEQNKSKLEHHHHHH
MDNLLAQKKPINILLLGTDTGAMGRSWKGRTDTIMMMAINPKTNSTSIVSIPRDSNAIFPDFPQYGVTKINSAYTLGGVGETVKTLDKYYSVPIDGYIMINMGGLKKAIDQVGGIDVTSPLTFDNMGYHFQEGKTYHMDGKKALAFAQLRHGDPRQDYGRQDRDRRVVMALLKKSISPTTLLNTKFLNSISSEMQTDLTMNQMYKIGMDYRHATDNLSQDHAQGVSKQTQNPKFGTMEIEVVSRQERQRVSDKLRAALGLPKVRVAANSASYVMNQLEHHHHHH
MDNNLEIKDLEKIAKKVRYNIVKMVGLAKSGHPGGSLSATDIIVALYFKLMNYSPDNPYKKDRDRFVLSKGHAAPALYAVLSELGIIEEEELWKLRRLEGKLQGHPSMDTPGVEICTGSLGQGFSAAVGMALGCRLDKLNNYVYVLLGDGECQEGIVWEAAMAAAHYKLDNLIAFIDRNKLQIDGCTEDVMSLGDIKAKFEAFGWDVFEIDGHNFEEIINTVEKAKSMKNGKPKMIIAYTVKGKGVSFMENNVAFHGKAPNEEQLKQALEELSE
MDNPVKLDTPVSGWRAGDGSAANYRQVVNYPASSVNVAADQATTARIRGAIESQPKDRPATLVVNGVSMPLKVDADGSFDRPFAFPSGSNSVEVRNAAGQSRRVQFYHGGGGGEVPAKLRVLLSWDSDNTDLDLHLVTPDGDHVWYGNRSLANGATLDVDVTTGYGPEIIATPTPQKGPYLVYVNYFGGGYGSSEDGAEQAAQDLTTARITLVTEEGTPNEKQETFLVPMRKPGELTLVKRFSYPLEHHHHHH
MDNVDFSKDIRDYSGLELAFLGDAIWELEIRKYYLQFGYNIPTLNKYVKAKVNAKYQSLIYKKIINDLDEEFKVIGKRAKNSNIKTFPRSCTVMEYKEATALEAIIGAMYLLKKEEEIKKIINIVIKGELEHHHHHH
MDPDNRVRQRAVKTLGKRGNPDVLEDLMEALKDSRQPVQEAASEALRKIIAASDSVPVLVKALDATDRNVRKAAIEALWKAGTPEAIPPLLRELDDADWYLRSRAADALADIASPEAALGLIKVMDIHDSPVKKIIVNALGKIGTVEAVEGLVKALEDLEHHHHHH
MDPFRFQVEARAGRARVGRLFTPHGAVETPLFMPVGTAGSVKGLMPKDLEAIGSQVLLTNTYHLLLRPGPERVRALGGLHGFAGWKGPWLTDSGGFQVMSLGHMRRIDEEGVVFQSHLDGRLIKLTPERSIAVQEALGADLIMAFDECPPYPSPREYLEASLERTLRWLERSLKAKTRPDQALFGIAQGGTDPELRRRSTLETIRFDLPGYAIGGLAVGEPKEAMFAMVELSTRLLPEDRPRYLMGVGHPEDLVAAMGLGVDLFDCVYPTRTGRFGSALVPEGRLNLKNARFLEDRRPLEEGCDCYTCQTFGRAYLAHLVRAGEMLGGILLSLHNLRHLHRLTEAARQAIREGRYGDFAREFARRRFGREVPPWFREALAAGGHG
MDRNEVRHAWDSVSETYAERRDPTGSDAALLEDLLERLPEAPTVLDVGCGDGARTLANLPPRSVGLDFSRAGLDLAAETVPDSRLVQGDMGSLPVTTDSVDAITAYHAVFHVQRDQHPEVYREFARVLRPGGTVLMTLPSGQFETVRRGWMGGSMFFSAPGRRATLDQLADAGFTETETVTATDPLGSDSEFVFATLADALEHHHHHH

Soluble on expression in E. coli, not soluble:
MDLTVPVEYSRAGNTTHSGNVHAIQDDEKFSYGTAGFRFKSEKLPFIVFRCAYVASLRARQLNSAIGVMITASHNPSCDNGVKLVDPSGDMLNEQWEIYATEVVNATDAELPAAVRALEKQISVGKTQLSRVVCGMDTRCSGPCLMNAARAGAALFNVQFDDIGVVSTPMLHYAVKAFNEPKFAEPTHDGYYSAIADSFKKLYEITEEPKDSRYQPKVIVDCANGVGAPRFRNLLERIPSSLLEVEFRNESEELNQGCGADFVKISQKLPANFSPTAAEPKCASFDGDADRLMYFRAKASENSESNDAELFDGDKIAVLIVTYIREQLKDYENSTPMERLRLGIVQTAYANGSSTRYIREKLGIEPIIVPTGVKHLHEAASEFDIGIYFEANGHGTVVFSEIFDRIIRRTPTESLPLRRLALFSRVINETVGDAFADLLAVEAVLRHYGWSMDDWAEKLYRDVPNVQIKVPVIDRSIFKTTNAEQTLVKPVGIQKMIDTDVAKYNNSRAFIRPSGTENIVRVYAEADTVENTLQLGKSLEQVVLNLCNSN
MDMDEKDVVETEEESFAELFEKSNSETQRLRPGSKVEGKILKIGAEWVFIDIGKKGEGVMERKELQDAEGNLTVAEGDTITAWFTGSVRNEMRFTTKLGAGAAANAQLEEAHRSGIPVEGFVVKEIKGGFEVRLSGTTRAFCPFSQISLRRAENPAEFVGKHLLFKVTEYSERGRNIVLSHRQILEEEQRVKREALKEVLLEGMTVTGTVTRLADFGAFVDLGGVDGLIPVSEVGWTRVKHVRDVLSVGEQVSVVIKKIDWEAGKISLSLKDTLADPWTTVAEQFPEGSYHTGTVARLAAFGAFVTLAPGIDGLIHISKLGKGKRINHPSDVLKEGETVEVKVDGVDREARRLSLALAEVSRAAEEEEKSVASFRQQATSSSKESMGSFGDLLKAKIEEKRLEHHHHHH
MDNDGINADPMELEKFSQLAHHWWDPNSEFKPLHEINPLRLNYIDEIIGGLSEKTVIDVGCGGGILSESMAARGASVTGIDLSDKALKVAKLHLLESGNQVDYRKITVEALATERPRYYDVVTCMEMLEHVPDPASVIQSCARLVKSGGWVFFSTLNRNPKSYLYAIIGAEYILRLLPRGTHEYAKFIKPSELAHMARSAGLMESGIVGMTYNPITKVYALEADTSVNYIMAFRA
MDNIVTQNIKFESEPNYYLRGYHLFDISPLNGLKCEITDEFETDKIHLKIKLDWDQQEIKKITGFIQLSYDGHQLKPIDSNFDKRGGICIMTVPKYINAYRWSFSFDLKLHRYPAKPPQISHDLNPQVRSYDTMFEPSRKHDAVLLIGEKKLHVNKAFLSYHSDYFCDLFAEKFDEKNGIPIENVTYENFGLLMSIIYPEAAFSNHQNAEVLLELGNRFKIPAVMRHVENQIIRDTKFPNERLIFLADKYELQKLLAMEIQKMESFDQAKKFKGSDDYSQLSDATKAKILDRLIELS
MDNKVILVGGFHEIIELCEDNDIEIAGIIDNYLTNDTYWGYPIIGTDDKAKVLFETYKNVPVLITPDVPHVRYKLYHYYKSIGFQVASLISRDASISRSAIIGEGTIIQRGANLSSNIKIGQMVKVNTNANIMHDCLIGNYVTVAPNAVLLGKVEIDDKAYIGANATLLPSVKIGENVTVGAGSVVTKSVRLEHHHHHH
MDNLLIQVTGKKRVVLFSPRDAQYLYLKGTKSEVLNIDNPDLAKYPLFSKARRYECSLEAGDVLFIPALWFHNVISEEFGVGVNIFWKHLPSECYDKTDTYGNKDPTAASRAAQILDRALKTLAELPEEYRDFYARRMVLHIQDKAYSKNSE
MDPKPINEGMLLEDHDHGMPEEEEITEDDMNGIHNIEEDTRTISEIAMELHHPNKSQVLLDQERFLPIANVVRIMKTQMDPQAKLAKDAKECAQECVSEFISFIASEAAEICNITKRKTITADDLLTAMEATGFDNYAEPMRIFLQKYRQAHKITGPIHRTHPDYVRPPQFQMDPFVRPLFFDTEQGRRCTETQYVINGSEIVKNAPLGEEWNEQTGTLNTRADGYYMEEPMEPMPMEEVEIEEHEEIIEQDSLGAIALEQQGQMQIYVDPKTKQHFAAKETPNGMELYPLIIQDTPLQLENVSGPNQFVMNMPDGRAIPHGMGQEEPQPVSSSSVMRKIGQNPSSYAQQHHHVSHVEQHDDVEYEEEEEVDQVEEDTVPVPIAPRPAATRVQPKRTPTKRKK
MDPLEALQKHVQRPEEFPLREVTVSGISYVAFGDYAYKKDTETSLQIYGKSDEFYSLESLVVFLKYSHENHGVYVKEAAAAGVRAVTRIDRKNVTEYLQGDRTDFPALMNQVNPLSLRQLLHSSEPEAKKPRLDGEAAGEPMDTSTSAEICSKIPIFLKINSIFFPDEPQESAVSAAKKEVEIRALNDNLTKDRIAEMRRKRQSHREKGIVTIETTFPQKPDFLIKKFQFFSESLSTLTSASLPKTRIHKTRENVMLGARDLSNVLDIITSAQRQWDLNEKKEKVAAVHATNLSKDQSGAAGGQQQRSGYSRYAQEAFAHEKTKEIQTEGSFIGSNFSSIKQGHHAVQKAPDAPPGRPPLAKPIQLLTSSTATSSGSSAAQNGSKRTSRSPIIIVPSAMNTMINLYNVRDILQNFSYVPVDQRRKETNKKPVDLAIQRQKNGVTYNIRVIDNAEKLANDDWDRVIAVFVMGVAWQFKGWKWNGNPTDIFTHIPAFHFHVDQDKPVAQVMQWNVHKIPVSATKRHMDKARFSQVWETIENFVRKNKPHLTARLGL
MDPLLTLLYIRHTLTSPWSSSEERDTAKAAMMEEMEKHNMAPYIRLVCEALGVPLDESKLAEMDAINAKKVAAFDARLKDAVDNLGDTEVRDVLQAKCDHYARIGDLEMCMKTNEECAAKTLATGPKLDLYFQRIRLGIAFSDNDIAAKGITDAHRLMKDGDWERRNRLRVYEGIYHVFIRDFQRGSTLLLDSITTFAAGELLTFQDFVFITVVASLPVLSRPELRKRIVYSPEVNRTGVDDVRELVNSIYDCQYNKVFPNLEVVCQHLRKVVYLSPHVSYFFREMRVLIFTQFLDSYSSVTLESMGAAFGIPVPALDSMLCTLISNERIACKVDRVDGSVETYRGDTTNFDYHRIVKSGDLLLNRIQKLSRLVDM
MDPNKFREKEISKKEALELFEDNEIIFELFKFADSLRREEVGDIVTYVVNRNINFTNICVGNCRFCAFRANENDKHAYFLDIDEIAKRAVEAKKFGCTEVCIQGGLHPKIDTYYQAEILKAVHEATKPYGDIHIHAFSPMEVYFGAENAGLDIKEALKILKENGLNSMPGTAAEILDDDIRAELCPNKIKTKEWIYIIKEAHKLGIPTTATMMYGHIEEYKHWVNHLFIIKEIQEETNGFTEFVPLSFMHKYAPIYKEGKAKAGATGIEDLKVFAVSRIIFKGLIKNIQASWVKLGKKMVQVALRCGANDVGGTLIEESISRSAGAEHGVYMSVEEIRDMIKRVGLIPKERTTLYKILE
